B1: mutant oligo no. 2 (dsDNA)
DNA 1: AACTCCTAAGCCAGTGCCAGAAAAAACAAGGACAGGT
DNA 2: ACCTGTCCTTGTTTTTTCTGGCACTGGCTTAGGAGTT
B2: mutant oligo no. 3 (dsDNA)
DNA 1: AACTCCTAAGCCAGTGCCAGAACAGCCAACCCCCCGT
DNA 2: ACGGGGGGTTGGCTGTTCTGGCACTGGCTTAGGAGTT
B3: mutant oligo no. 1 (dsDNA)
DNA 1: AAGGGGGGAGCCAGTGCCAGAAGAGCCAAGGACAGGT
DNA 2: ACCTGTCCTTGGCTCTTCTGGCACTGGCTCCCCCCTT

The binders below were run against Nuclear ferritin-H (K562 nuclear extract, crude or heat/proteinase K enriched) (Homo sapiens, UniProt P02794 P02794:2-183) (assay: competition; competes about as well as wt). Conditions: protein: extract.
Procedure: Gel mobility shift assays. Gel retardation assays (i.e., gel shifts) were used to determine DNA binding of the extract proteins to the Rsa I (95 bp) fragment and synthetic oligonucleotides (Berg et al., (1989) Nucleic Acids Res 17, 8833-52; Fried & Crothers (1981) Nucleic Acids Res 9, 6505-25). Each reaction contained 0.5-2 ng of DNA, 1.0-5.0 ug of extract protein, 1.0-5.0 ug of poly dI:poly dC, 100 mM KCl, and binding buffer (Berg et al., (1989) Nucleic Acids Res 17, 8833-52). Unlabeled competitor oligonucleotides ranged from 15- to 2000-fold molar excess and were included in the reaction mixture with the probe before adding protein. Gels used for retardation assays were 4%, 5%, or 6% acrylamide and the running buffer was low ionic strength TAE (Berg et al., (1989) Nucleic Acids Res 17, 8833-52).
Definition of the binding site with competition gel shifts. To further localize the binding of ferritin, the 37 bp oligonucleotide was mutated in different places, replacing six nucleotides at a time with all A's, all C's, or all G's, with complementary nucleotide replacements in the opposing strand (FIG. 4A). A competition gel shift assay was done with the partially purified protein from heated K562 nuclear extract, in which each of the unlabeled mutant oligos as well as the native sequence was competed against the 32-P-labeled native sequence for binding.

Question: Which binding signal does the source give for B1 here?
Answer: Its binding signal is roughly 1 fold.

Question: B2 was tested. Which binding signal did it give?
Answer: Its binding signal is roughly 1 fold.

Question: How did the binding signal turn out when B3 was run?
Answer: Its binding signal is roughly 1 fold.
